Patent US20150344570A1 (published 2015)

T1: FcγRIIa R extracellular domain with C-terminal His tag (human, UniProt P12318 34-217)
T1 construct: extracellular domain; also called FcgRIIa R; 2aR; not shown: His tag at the C terminus
T1 sequence (looked up): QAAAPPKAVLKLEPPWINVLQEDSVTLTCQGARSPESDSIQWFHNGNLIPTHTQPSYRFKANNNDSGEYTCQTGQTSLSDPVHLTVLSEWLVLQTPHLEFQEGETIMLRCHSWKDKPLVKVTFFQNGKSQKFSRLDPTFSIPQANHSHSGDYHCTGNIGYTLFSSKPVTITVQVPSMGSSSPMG


Molecular target: T1, FcγRIIa R extracellular domain with …
Assay: SPR (Biacore), relative FcγRIIa R binding, GpH7-A5/GpH7-B3/GpL16-k0 = 100

Binder | He/Con_2aR
GpH7-A5/GpH7-B3 variant A330_12R/GpL16-k0 (antibody, human IgG1, kappa, heterodimerized: alteration in one H chain only; also called He Ab A330_12R) heavy 1: not shown heavy 2: not shown light: DIVMTQSPLSLPVTPGEPASISCQASESLVHSNRNTYLHWYLQKPGQSPQLLIYKVSNRFSGVPDRFSGSGSGTDFTLKISRVEAEDVGVYYCSQNTHVPPTFGQGTKVEIERTVAAPSVFIFPPSDEQLKSGTASVVCLLNNFYPREAKVQWKVDNALQSGNSQESVTEQDSKDSTYSLSSTLTLSKADYEKHKVYACEVTHQGLSSPVTKSFNRGEC | 104 % of control
GpH7-A5/GpH7-B3 variant K334_05P/GpL16-k0 (antibody, human IgG1, kappa, heterodimerized: alteration in one H chain only; also called He Ab K334_05P) heavy 1: not shown heavy 2: not shown light: DIVMTQSPLSLPVTPGEPASISCQASESLVHSNRNTYLHWYLQKPGQSPQLLIYKVSNRFSGVPDRFSGSGSGTDFTLKISRVEAEDVGVYYCSQNTHVPPTFGQGTKVEIERTVAAPSVFIFPPSDEQLKSGTASVVCLLNNFYPREAKVQWKVDNALQSGNSQESVTEQDSKDSTYSLSSTLTLSKADYEKHKVYACEVTHQGLSSPVTKSFNRGEC | 103 % of control
GpH7-A5/GpH7-B3 variant K334_19Q/GpL16-k0 (antibody, human IgG1, kappa, heterodimerized: alteration in one H chain only; also called He Ab K334_19Q) heavy 1: not shown heavy 2: not shown light: DIVMTQSPLSLPVTPGEPASISCQASESLVHSNRNTYLHWYLQKPGQSPQLLIYKVSNRFSGVPDRFSGSGSGTDFTLKISRVEAEDVGVYYCSQNTHVPPTFGQGTKVEIERTVAAPSVFIFPPSDEQLKSGTASVVCLLNNFYPREAKVQWKVDNALQSGNSQESVTEQDSKDSTYSLSSTLTLSKADYEKHKVYACEVTHQGLSSPVTKSFNRGEC | 109 % of control
GpH7-A5/GpH7-B3 variant I332_06M/GpL16-k0 (antibody, human IgG1, kappa, heterodimerized: alteration in one H chain only; also called He Ab I332_06M) heavy 1: not shown heavy 2: not shown light: DIVMTQSPLSLPVTPGEPASISCQASESLVHSNRNTYLHWYLQKPGQSPQLLIYKVSNRFSGVPDRFSGSGSGTDFTLKISRVEAEDVGVYYCSQNTHVPPTFGQGTKVEIERTVAAPSVFIFPPSDEQLKSGTASVVCLLNNFYPREAKVQWKVDNALQSGNSQESVTEQDSKDSTYSLSSTLTLSKADYEKHKVYACEVTHQGLSSPVTKSFNRGEC | 109 % of control
GpH7-A5/GpH7-B3 variant K326_07I/GpL16-k0 (antibody, human IgG1, kappa, heterodimerized: alteration in one H chain only; also called He Ab K326_07I) heavy 1: not shown heavy 2: not shown light: DIVMTQSPLSLPVTPGEPASISCQASESLVHSNRNTYLHWYLQKPGQSPQLLIYKVSNRFSGVPDRFSGSGSGTDFTLKISRVEAEDVGVYYCSQNTHVPPTFGQGTKVEIERTVAAPSVFIFPPSDEQLKSGTASVVCLLNNFYPREAKVQWKVDNALQSGNSQESVTEQDSKDSTYSLSSTLTLSKADYEKHKVYACEVTHQGLSSPVTKSFNRGEC | 147 % of control
GpH7-A5/GpH7-B3 variant K326_20W/GpL16-k0 (antibody, human IgG1, kappa, heterodimerized: alteration in one H chain only; also called He Ab K326_20W) heavy 1: not shown heavy 2: not shown light: DIVMTQSPLSLPVTPGEPASISCQASESLVHSNRNTYLHWYLQKPGQSPQLLIYKVSNRFSGVPDRFSGSGSGTDFTLKISRVEAEDVGVYYCSQNTHVPPTFGQGTKVEIERTVAAPSVFIFPPSDEQLKSGTASVVCLLNNFYPREAKVQWKVDNALQSGNSQESVTEQDSKDSTYSLSSTLTLSKADYEKHKVYACEVTHQGLSSPVTKSFNRGEC | 131 % of control
GpH7-A5/GpH7-B3 variant K326_03V/GpL16-k0 (antibody, human IgG1, kappa, heterodimerized: alteration in one H chain only; also called He Ab K326_03V) heavy 1: not shown heavy 2: not shown light: DIVMTQSPLSLPVTPGEPASISCQASESLVHSNRNTYLHWYLQKPGQSPQLLIYKVSNRFSGVPDRFSGSGSGTDFTLKISRVEAEDVGVYYCSQNTHVPPTFGQGTKVEIERTVAAPSVFIFPPSDEQLKSGTASVVCLLNNFYPREAKVQWKVDNALQSGNSQESVTEQDSKDSTYSLSSTLTLSKADYEKHKVYACEVTHQGLSSPVTKSFNRGEC | 141 % of control
GpH7-A5/GpH7-B3 variant L328_13S/GpL16-k0 (antibody, human IgG1, kappa, heterodimerized: alteration in one H chain only; also called He Ab L328_13S) heavy 1: not shown heavy 2: not shown light: DIVMTQSPLSLPVTPGEPASISCQASESLVHSNRNTYLHWYLQKPGQSPQLLIYKVSNRFSGVPDRFSGSGSGTDFTLKISRVEAEDVGVYYCSQNTHVPPTFGQGTKVEIERTVAAPSVFIFPPSDEQLKSGTASVVCLLNNFYPREAKVQWKVDNALQSGNSQESVTEQDSKDSTYSLSSTLTLSKADYEKHKVYACEVTHQGLSSPVTKSFNRGEC | 117 % of control
GpH7-A5/GpH7-B3 variant K334_04F/GpL16-k0 (antibody, human IgG1, kappa, heterodimerized: alteration in one H chain only; also called He Ab K334_04F) heavy 1: not shown heavy 2: not shown light: DIVMTQSPLSLPVTPGEPASISCQASESLVHSNRNTYLHWYLQKPGQSPQLLIYKVSNRFSGVPDRFSGSGSGTDFTLKISRVEAEDVGVYYCSQNTHVPPTFGQGTKVEIERTVAAPSVFIFPPSDEQLKSGTASVVCLLNNFYPREAKVQWKVDNALQSGNSQESVTEQDSKDSTYSLSSTLTLSKADYEKHKVYACEVTHQGLSSPVTKSFNRGEC | 110 % of control
GpH7-A5/GpH7-B3 variant K334_08L/GpL16-k0 (antibody, human IgG1, kappa, heterodimerized: alteration in one H chain only; also called He Ab K334_08L) heavy 1: not shown heavy 2: not shown light: DIVMTQSPLSLPVTPGEPASISCQASESLVHSNRNTYLHWYLQKPGQSPQLLIYKVSNRFSGVPDRFSGSGSGTDFTLKISRVEAEDVGVYYCSQNTHVPPTFGQGTKVEIERTVAAPSVFIFPPSDEQLKSGTASVVCLLNNFYPREAKVQWKVDNALQSGNSQESVTEQDSKDSTYSLSSTLTLSKADYEKHKVYACEVTHQGLSSPVTKSFNRGEC | 106 % of control
GpH7-A5/GpH7-B3 variant K334_13S/GpL16-k0 (antibody, human IgG1, kappa, heterodimerized: alteration in one H chain only; also called He Ab K334_13S) heavy 1: not shown heavy 2: not shown light: DIVMTQSPLSLPVTPGEPASISCQASESLVHSNRNTYLHWYLQKPGQSPQLLIYKVSNRFSGVPDRFSGSGSGTDFTLKISRVEAEDVGVYYCSQNTHVPPTFGQGTKVEIERTVAAPSVFIFPPSDEQLKSGTASVVCLLNNFYPREAKVQWKVDNALQSGNSQESVTEQDSKDSTYSLSSTLTLSKADYEKHKVYACEVTHQGLSSPVTKSFNRGEC | 109 % of control
GpH7-A5/GpH7-B3 variant G237_04F/GpL16-k0 (antibody, human IgG1, kappa, heterodimerized: alteration in one H chain only; also called He Ab G237_04F) heavy 1: not shown heavy 2: not shown light: DIVMTQSPLSLPVTPGEPASISCQASESLVHSNRNTYLHWYLQKPGQSPQLLIYKVSNRFSGVPDRFSGSGSGTDFTLKISRVEAEDVGVYYCSQNTHVPPTFGQGTKVEIERTVAAPSVFIFPPSDEQLKSGTASVVCLLNNFYPREAKVQWKVDNALQSGNSQESVTEQDSKDSTYSLSSTLTLSKADYEKHKVYACEVTHQGLSSPVTKSFNRGEC | 126 % of control
GpH7-A5/GpH7-B3 variant K326_08L/GpL16-k0 (antibody, human IgG1, kappa, heterodimerized: alteration in one H chain only; also called He Ab K326_08L) heavy 1: not shown heavy 2: not shown light: DIVMTQSPLSLPVTPGEPASISCQASESLVHSNRNTYLHWYLQKPGQSPQLLIYKVSNRFSGVPDRFSGSGSGTDFTLKISRVEAEDVGVYYCSQNTHVPPTFGQGTKVEIERTVAAPSVFIFPPSDEQLKSGTASVVCLLNNFYPREAKVQWKVDNALQSGNSQESVTEQDSKDSTYSLSSTLTLSKADYEKHKVYACEVTHQGLSSPVTKSFNRGEC | 137 % of control
GpH7-A5/GpH7-B3 variant I336_08L/GpL16-k0 (antibody, human IgG1, kappa, heterodimerized: alteration in one H chain only; also called He Ab I336_08L) heavy 1: not shown heavy 2: not shown light: DIVMTQSPLSLPVTPGEPASISCQASESLVHSNRNTYLHWYLQKPGQSPQLLIYKVSNRFSGVPDRFSGSGSGTDFTLKISRVEAEDVGVYYCSQNTHVPPTFGQGTKVEIERTVAAPSVFIFPPSDEQLKSGTASVVCLLNNFYPREAKVQWKVDNALQSGNSQESVTEQDSKDSTYSLSSTLTLSKADYEKHKVYACEVTHQGLSSPVTKSFNRGEC | 110 % of control
GpH7-A5/GpH7-B3 variant H268_01G/GpL16-k0 (antibody, human IgG1, kappa, heterodimerized: alteration in one H chain only; also called He Ab H268_01G) heavy 1: not shown heavy 2: not shown light: DIVMTQSPLSLPVTPGEPASISCQASESLVHSNRNTYLHWYLQKPGQSPQLLIYKVSNRFSGVPDRFSGSGSGTDFTLKISRVEAEDVGVYYCSQNTHVPPTFGQGTKVEIERTVAAPSVFIFPPSDEQLKSGTASVVCLLNNFYPREAKVQWKVDNALQSGNSQESVTEQDSKDSTYSLSSTLTLSKADYEKHKVYACEVTHQGLSSPVTKSFNRGEC | 124 % of control
GpH7-A5/GpH7-B3 variant K334_10E/GpL16-k0 (antibody, human IgG1, kappa, heterodimerized: alteration in one H chain only; also called He Ab K334_10E) heavy 1: not shown heavy 2: not shown light: DIVMTQSPLSLPVTPGEPASISCQASESLVHSNRNTYLHWYLQKPGQSPQLLIYKVSNRFSGVPDRFSGSGSGTDFTLKISRVEAEDVGVYYCSQNTHVPPTFGQGTKVEIERTVAAPSVFIFPPSDEQLKSGTASVVCLLNNFYPREAKVQWKVDNALQSGNSQESVTEQDSKDSTYSLSSTLTLSKADYEKHKVYACEVTHQGLSSPVTKSFNRGEC | 106 % of control
GpH7-A5/GpH7-B3 variant G237_20W/GpL16-k0 (antibody, human IgG1, kappa, heterodimerized: alteration in one H chain only; also called He Ab G237_20W) heavy 1: not shown heavy 2: not shown light: DIVMTQSPLSLPVTPGEPASISCQASESLVHSNRNTYLHWYLQKPGQSPQLLIYKVSNRFSGVPDRFSGSGSGTDFTLKISRVEAEDVGVYYCSQNTHVPPTFGQGTKVEIERTVAAPSVFIFPPSDEQLKSGTASVVCLLNNFYPREAKVQWKVDNALQSGNSQESVTEQDSKDSTYSLSSTLTLSKADYEKHKVYACEVTHQGLSSPVTKSFNRGEC | 138 % of control
GpH7-A5/GpH7-B3 variant L235_20W/GpL16-k0 (antibody, human IgG1, kappa, heterodimerized: alteration in one H chain only; also called He Ab L235_20W) heavy 1: not shown heavy 2: not shown light: DIVMTQSPLSLPVTPGEPASISCQASESLVHSNRNTYLHWYLQKPGQSPQLLIYKVSNRFSGVPDRFSGSGSGTDFTLKISRVEAEDVGVYYCSQNTHVPPTFGQGTKVEIERTVAAPSVFIFPPSDEQLKSGTASVVCLLNNFYPREAKVQWKVDNALQSGNSQESVTEQDSKDSTYSLSSTLTLSKADYEKHKVYACEVTHQGLSSPVTKSFNRGEC | 131 % of control
GpH7-A5/GpH7-B3 variant K326_15Y/GpL16-k0 (antibody, human IgG1, kappa, heterodimerized: alteration in one H chain only; also called He Ab K326_15Y) heavy 1: not shown heavy 2: not shown light: DIVMTQSPLSLPVTPGEPASISCQASESLVHSNRNTYLHWYLQKPGQSPQLLIYKVSNRFSGVPDRFSGSGSGTDFTLKISRVEAEDVGVYYCSQNTHVPPTFGQGTKVEIERTVAAPSVFIFPPSDEQLKSGTASVVCLLNNFYPREAKVQWKVDNALQSGNSQESVTEQDSKDSTYSLSSTLTLSKADYEKHKVYACEVTHQGLSSPVTKSFNRGEC | 136 % of control
GpH7-A5/GpH7-B3 variant K326_04F/GpL16-k0 (antibody, human IgG1, kappa, heterodimerized: alteration in one H chain only; also called He Ab K326_04F) heavy 1: not shown heavy 2: not shown light: DIVMTQSPLSLPVTPGEPASISCQASESLVHSNRNTYLHWYLQKPGQSPQLLIYKVSNRFSGVPDRFSGSGSGTDFTLKISRVEAEDVGVYYCSQNTHVPPTFGQGTKVEIERTVAAPSVFIFPPSDEQLKSGTASVVCLLNNFYPREAKVQWKVDNALQSGNSQESVTEQDSKDSTYSLSSTLTLSKADYEKHKVYACEVTHQGLSSPVTKSFNRGEC | 135 % of control
GpH7-A5/GpH7-B3 variant K334_02A/GpL16-k0 (antibody, human IgG1, kappa, heterodimerized: alteration in one H chain only; also called He Ab K334_02A) heavy 1: not shown heavy 2: not shown light: DIVMTQSPLSLPVTPGEPASISCQASESLVHSNRNTYLHWYLQKPGQSPQLLIYKVSNRFSGVPDRFSGSGSGTDFTLKISRVEAEDVGVYYCSQNTHVPPTFGQGTKVEIERTVAAPSVFIFPPSDEQLKSGTASVVCLLNNFYPREAKVQWKVDNALQSGNSQESVTEQDSKDSTYSLSSTLTLSKADYEKHKVYACEVTHQGLSSPVTKSFNRGEC | 105 % of control
